In the supplement of paper PMC10567573 one finds protein stability index data, which are given here for 72 sequences.

± gives the standard deviation.

The data set can be described thus: protein stability index of a GFP-peptide fusion (GPS, HEK-293T) (PSI 1-6); higher = more stable.
Where [1] appears, read: treatment: DMSO, c terminus: a fixed tail appended.
The mark [2] stands for this setting: treatment: MLN4924 1 uM, 8 h, c terminus: a fixed tail appended.
Setting [3] is: treatment: DMSO, c terminus: native.
The mark [4] stands for this setting: treatment: MLN4924 1 uM, 8 h, c terminus: native.
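Also: 24-mer peptide tiles fused after GFP, lentivirally expressed, FACS-sorted into six equal bins by GFP/DsRed ratio, decoded by Illumina sequencing, PSI is the read-weighted mean bin number.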

Regarding YSSEMKTEDELRVRHLEEENRGIV [AUH], the protein stability index under setting [1] is 4.78 ± 1 and the protein stability index under setting [2] amounted to 5.35 ± 0.86.

With RRVLQGLEIELQSQLSMKASLENS [KRT16], the protein stability index by setting is: under setting [1], 2.8 ± 0.21; under setting [2], 2.89 ± 0.4.

LEIYQSSQDEPIALDKQHSRDSAA [NOL4L]: the protein stability index amounted to 4.89 ± 0.24 under setting [1] and 5.16 ± 0.12 under setting [2].

The sequence MGANTSRKPPVFDENEDVNFDHFE [STK32A] returned a protein stability index under setting [1] of 5.11 ± 0.26 and a protein stability index under setting [2] of 5.134 ± 0.042.

On to QQHAEGSPEPGTPAAPTPESFTVH [DNAAF3], for which the protein stability index under setting [1] came to 5.17 ± 0.24 and the protein stability index under setting [2] came out at 5.27 ± 0.43.

Regarding YLLQWLKSDKALMMLFNDGTFQVN [PLK2], the protein stability index is 2.73 ± 0.53 under setting [1] and 2.53 ± 0.51 under setting [2].

Turning to LVEAVLSGEVLNGAAVVRPPGHHA [HDAC6], the protein stability index was 2.27 ± 0.2 under setting [1] and 2.27 ± 0.34 under setting [2].

In the case of TVYNEMDKNRCELLSFLLLMDYIG [EDNRA], the protein stability index under setting [1] is 2.09 ± 0.34 and the protein stability index under setting [2] amounted to 2.17 ± 0.5.

For PHVIVSTTGPNPFTTLTDRELEEY [ADD1], the protein stability index came out at 4.83 ± 0.17 under setting [1] and 4.91 ± 0.091 under setting [2].

In the case of GTDVTRCICGFTHDDGYMICCDKC [KMT2E], the protein stability index was found to be 5 ± 0.2 under setting [1] and 5.07 ± 0.12 under setting [2].

As for PSALVPSVTEYRLDGHTISDLSRS [MYBL2], the protein stability index by setting is: under setting [1], 4.25 ± 0.2; under setting [2], 4.25 ± 0.39.

Take ILTGCKNMLFQQNKDGIGEICLWG [ACSBG2]: the protein stability index by setting is: under setting [1], 3.01 ± 1.4; under setting [2], 2.92 ± 0.44.

For the sequence KGEVPKGSCEDEPMDSTMDDAVAG [ATE1], the protein stability index came to 5.48 ± 0.28 under setting [1] and 5.61 ± 0.17 under setting [2].

Turning to PLCMLLLIDHLALRARNYEYLIRL [TCF25], the protein stability index was found to be 3.43 ± 1.1 under setting [1] and 2.92 ± 0.55 under setting [2].

As to YVATEAILIALVGATPSYHWDLAE [SLC22A15], the protein stability index turned out to be 3.01 ± 0.39 under setting [1] and 3.27 ± 0.31 under setting [2].

Take AEEFEQPTLSCEKYLTYDQLRKQK [ELOA2]: the protein stability index reads like this: under setting [1], 4.71 ± 0.31; under setting [2], 4.9 ± 0.11.

VYPKEFHLNRGNHEDHMVNLRYGF [PPEF2]: the protein stability index is 2.69 ± 0.29 under setting [1] and 2.71 ± 0.36 under setting [2].

Regarding TCSSCLLRAPTISDLLNDQDLLDV [EDARADD], the protein stability index is 2.57 ± 0.29 under setting [1] and 2.56 ± 0.43 under setting [2].

Take VQLIQDTRIHILPSMNPDGYEVAA [CPN1]: the protein stability index is, setting by setting: under setting [1], 2.55 ± 0.23; under setting [2], 2.57 ± 0.33.

For the sequence RDGALLGCSLTADGLPLHFFIQTV [MYORG], the protein stability index under setting [1] came to 2.35 ± 0.31 and the protein stability index under setting [2] turned out to be 2.36 ± 0.52.

Sequence EGKNMSFVNDLTVTQDGRKIYFTD [APMAP] yielded a protein stability index under setting [1] of 3.98 ± 0.38 and a protein stability index under setting [2] of 3.91 ± 0.58.

On to ESTTVVTTQSAEVGAAETTLTELR [KRT18], for which the protein stability index reads like this: under setting [1], 5.37 ± 0.076; under setting [2], 5.29 ± 0.22.

As for SLKDQERVAEVSRVRVELQEQNGR [LRRC45], the protein stability index runs as follows: under setting [1], 5.17 ± 0.45; under setting [2], 4.91 ± 0.26.

RESWDSAKKLPPVQESQSERLQAA [ELOA2]: the protein stability index reads like this: under setting [1], 5.12 ± 0.17; under setting [2], 5.02 ± 0.086.

As to NCQSVAQMNLLQKYSLLKLTALLE [DLC1], the protein stability index is 2.25 ± 0.36 under setting [1] and 2.44 ± 0.11 under setting [2].

As to VPTPLTNVQILLPVGEPVTNVRLQ [FCHO1], the protein stability index is, setting by setting: under setting [1], 3.35 ± 0.34; under setting [2], 3.36 ± 0.33.

On to HGNLSEEAAKQMRSRGKVLKTKDG [CPOX], for which the protein stability index is, setting by setting: under setting [1], 5.22 ± 0.2; under setting [2], 5.41 ± 0.2.

Consider GGAVVANYPYDKSFEHRVRGVRRT [CPN1], for which the protein stability index came out at 4.25 ± 0.29 under setting [1] and 4.29 ± 0.15 under setting [2].

Turning to EMMRFIYTGRAPNLDKMADNLLAA [SPOPL], the protein stability index was 2.42 ± 0.29 under setting [1] and 2.01 ± 0.19 under setting [2].

IEDDIRPEKQKRKPGLRRSPIKKV [MYBL2] returned a protein stability index under setting [1] of 5.01 ± 0.25 and a protein stability index under setting [2] of 4.83 ± 0.23.

Take ARARERERLAHSRAAAAAAVAAAT [KCNA4]: the protein stability index runs as follows: under setting [1], 4.27 ± 0.24; under setting [2], 4.38 ± 0.13.

Regarding LLKRIKKCCGMRNTDVSMENMVTV [KCNK9], the protein stability index was found to be 2.22 ± 0.52 under setting [1] and 2.32 ± 0.25 under setting [2].

Take AGQLMGFFKGIDQDIERGVQSEIF [LYSMD4]: the protein stability index under setting [1] turned out to be 2.71 ± 0.33 and the protein stability index under setting [2] was 2.75 ± 0.34.

Consider ISFNKTMTQLSSTLARCAKDILGF [PKD2L1], for which the protein stability index is, setting by setting: under setting [1], 2.96 ± 0.85; under setting [2], 2.62 ± 0.56.

Regarding PRLQQLLKTLEEGLEGLEDAPPVE [FANCE], the protein stability index under setting [1] came to 4.41 ± 0.16 and the protein stability index under setting [2] stood at 4.34 ± 0.3.

Turning to HEMVAHRHRQEVLCKEMVPLAEQT [ZSCAN9], the protein stability index by setting is: under setting [1], 4.42 ± 0.2; under setting [2], 4.41 ± 0.19.

The sequence AYRTQVSSCCLHICQGIRGLWGTT [PKD2L1] gave a protein stability index under setting [1] of 2.34 ± 0.45 and a protein stability index under setting [2] of 2.27 ± 0.28.

As for FSGTPPPPVLSFRLVHTTAIEHFQ [FCHO1], the protein stability index is, setting by setting: under setting [1], 2.32 ± 0.24; under setting [2], 2.28 ± 0.19.

Take REAMLEMLLQHQICKEVQAEQEPT [SPAG8]: the protein stability index under setting [1] worked out at 4.1 ± 0.25 and the protein stability index under setting [2] came to 4.15 ± 0.39.

Sequence CSQYDRVYCGAGVQKEHEEYMKNL [PCMTD2] yielded a protein stability index under setting [1] of 2.93 ± 0.61 and a protein stability index under setting [2] of 2.6 ± 0.55.

SAALFYLTNSEYRSEQSVKLRRQV [ZER1]: the protein stability index under setting [1] worked out at 2.85 ± 0.57 and the protein stability index under setting [2] was 2.83 ± 0.069.

In turn, QDEVPDEVENQFILRLPLEHACTV [TAF7L] had a protein stability index under setting [1] of 4.395 ± 0.043 and a protein stability index under setting [2] of 4.47 ± 0.13.

Turning to ELALALKGNTTLQQLDLRWNNVGL [LRRC45], the protein stability index came out at 2.19 ± 0.42 under setting [1] and 2.07 ± 0.35 under setting [2].

With PPTSGCLGPVPREDQAEAWGCSCC [TSPAN10], the protein stability index is 4.8 ± 0.3 under setting [1] and 4.74 ± 0.24 under setting [2].

Take DDPSLRKTHSSPALSQGHVTGSKT [PSD2]: the protein stability index stood at 5.5 ± 0.32 under setting [1] and 5.5 ± 0.33 under setting [2].

Take QLSSFGSVDWLSQSSCSGPTHTPR [VENTX]: the protein stability index under setting [1] is 3.48 ± 0.3 and the protein stability index under setting [2] was 3.69 ± 0.29.

Take DVDEDEPGGLVGSADVVSPSGHSD [PPFIA4]: the protein stability index runs as follows: under setting [1], 5.66 ± 0.36; under setting [2], 5.47 ± 0.12.

Consider SAMLLVTLGKVLKVIVVMRSLFID [MED27], for which the protein stability index runs as follows: under setting [1], 2.9 ± 0.45; under setting [2], 2.85 ± 0.73.

DVIGDEICCWSFYGQGRKIAEVCC [KCTD10] gave a protein stability index under setting [1] of 2.42 ± 0.92 and a protein stability index under setting [2] of 2.33 ± 0.54.

On to RSFWELIGEAAKSVKLERPVRGH [S100A14], for which the protein stability index turned out to be 2.82 ± 0.81 under setting [3] and 2.65 ± 0.62 under setting [4].

Turning to SSGKVLPKWGWEQLEVTCTPYLKE [POMT2], the protein stability index was found to be 2.64 ± 0.33 under setting [1] and 2.67 ± 0.33 under setting [2].

For the sequence RGFFFSHVGWLLVRKHPAVKEKGS [SCD], the protein stability index stood at 2.31 ± 0.6 under setting [1] and 2.5 ± 0.17 under setting [2].

As to ASVTIQARAEQEEEFISNTLFKKI [CCDC6], the protein stability index is, setting by setting: under setting [1], 3.54 ± 0.14; under setting [2], 3.81 ± 0.12.

As for RLVVQRCSGQKWMIRNWIKHARH [GALNT9], the protein stability index reads like this: under setting [3], 3.21 ± 0.92; under setting [4], 2.69 ± 0.65.

As for EKNQVQLGKLEATIKSLSAELLKA [SASS6], the protein stability index reads like this: under setting [1], 2.6 ± 0.45; under setting [2], 2.54 ± 0.42.

KNVEENLYSSSLGGGVATSPMLIV [GLT8D2] showed a protein stability index under setting [1] of 2.26 ± 0.26 and a protein stability index under setting [2] of 2.06 ± 0.22.

Take EAALNSKDAALATALGDKKSLEGD [LMNB1]: the protein stability index runs as follows: under setting [1], 5.52 ± 0.25; under setting [2], 5.5 ± 0.078.

VRKWRVKSALGAMGQWQLEVGDPA [DPCD]: the protein stability index came out at 2.46 ± 0.26 under setting [1] and 2.57 ± 0.21 under setting [2].

VVFHCEFSSERGPRMCRYVRERDR [CDC25A]: the protein stability index is, setting by setting: under setting [1], 2.41 ± 0.56; under setting [2], 2.4 ± 0.3.

For SSLVWLFSQLYLYSFISLFIYMVL [MCOLN1], the protein stability index by setting is: under setting [1], 3.02 ± 0.19; under setting [2], 3.03 ± 0.68.

On to ISGGVHNGEYVPWLYCYDPVMDVW [KLHL14], for which the protein stability index was determined as 2.32 ± 0.33 under setting [1] and 2.59 ± 0.73 under setting [2].

Take NTHVSQVFNLFRTMGLRHLPVVNA [CLCN6]: the protein stability index under setting [1] turned out to be 2.57 ± 0.39 and the protein stability index under setting [2] is 2.12 ± 0.15.

With KDTRMAEEYCHKHYDRNKDGNKDV [VPS39], the protein stability index reads like this: under setting [1], 4.68 ± 0.21; under setting [2], 5.03 ± 0.23.

Regarding KMKHHLTEHMKTHTGLKPYECGVC [ZBTB22], the protein stability index by setting is: under setting [1], 3.32 ± 0.28; under setting [2], 3.5 ± 0.47.

For the sequence MGATRCDFTLSKTNMARIREIMEK [CPXM2], the protein stability index worked out at 2.96 ± 0.088 under setting [1] and 3.3 ± 0.31 under setting [2].

As for LTQLHRLSLESSPDAPDHTSETSH [PLEKHN1], the protein stability index runs as follows: under setting [1], 5.23 ± 0.32; under setting [2], 5.22 ± 0.21.

The sequence LTPHIVQYQANKVTHTLTMRQRIS [PPEF2] came in with a protein stability index under setting [1] of 2.89 ± 0.28 and a protein stability index under setting [2] of 3 ± 0.17.

Take PQPPDAPQLVSSAREGSSEPWLPL [PLEKHN1]: the protein stability index runs as follows: under setting [1], 4.36 ± 0.25; under setting [2], 4.56 ± 0.1.

As to RPCVPPSCHGYTLPGACNIPANVS [KRT33B], the protein stability index was 2.79 ± 0.24 under setting [1] and 2.74 ± 0.17 under setting [2].

AWSQRSAAGRVCRPPGPAGTEQSR [CPOX]: the protein stability index amounted to 4.16 ± 0.22 under setting [1] and 4.29 ± 0.16 under setting [2].

In the case of QLKRQKRDYIHSLKLLNVLEEYIT [FAM9B], the protein stability index is, setting by setting: under setting [1], 2.28 ± 0.55; under setting [2], 2.56 ± 0.42.

Take ILIIQGVLSDINLKKGESECQYYI [NET1]: the protein stability index reads like this: under setting [1], 2.73 ± 0.54; under setting [2], 2.67 ± 1.
